From patent US20240309087A1 (SHANGHAI JUNSHI BIOSCIENCES, published 2024)
Changes are numbered by the printed parent chain.

T1: human CD112R on Jurkat CD112R effector cells (human, UniProt Q6DKI7 1-326)
T1 sequence (looked up): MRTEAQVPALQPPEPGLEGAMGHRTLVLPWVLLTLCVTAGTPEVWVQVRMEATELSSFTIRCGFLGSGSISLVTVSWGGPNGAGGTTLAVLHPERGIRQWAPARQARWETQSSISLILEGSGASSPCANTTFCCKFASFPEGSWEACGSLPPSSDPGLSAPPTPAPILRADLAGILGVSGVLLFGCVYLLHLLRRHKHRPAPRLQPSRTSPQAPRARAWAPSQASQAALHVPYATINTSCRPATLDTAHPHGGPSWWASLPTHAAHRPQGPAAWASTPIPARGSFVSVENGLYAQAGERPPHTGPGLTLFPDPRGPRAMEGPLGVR

T2: hCD112R mFC recombinant protein (human; murine, UniProt Q6DKI7 41-160)
T2 construct: range 41-160; expressed in 293E cells; also called hCD112R ECD mFC; hCD112R-ECD-mFC; not shown: murine IgG2a Fc domain (MX2-mFc vector)
T2 sequence (looked up): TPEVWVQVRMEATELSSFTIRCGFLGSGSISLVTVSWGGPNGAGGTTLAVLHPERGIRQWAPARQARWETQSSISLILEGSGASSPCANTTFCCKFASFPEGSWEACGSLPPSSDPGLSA

B1: Hu1 (antibody, IgG4, V domains shown)
VH: EVQLVESGGGLVQPGGSLRLSCAASGFTFSSYHMSWVRQAPGKGLELVAAINSNDINTYYLDTVKGRFTISRDIAKNSLYLQMNSLRAEDTAVYYCARHEDYYGFAMDYWGQGTLVTVSS
VL: DIVMTQSPDSLAVSLGERATINCKASQSVTNDVAWYQQKPGQPPKLLIYYVSNHYTGVPDRFSGSGSGTDFTLTISSLQAEDVAVYFCQQAYRSPWTFGQGTKLEIK
notes: humanized IgG4; also called Hu-01
B2: Hu50 (antibody, IgG4, V domains shown)
VH: B1 VH with Q13K, A49S, D55G, I74N
VL: AIQMTQSPSSLSASVGDRVTITCKASQSVTNDVAWYQQKPGKAPKLLIYYVSNHYTGVPSRFSGSGSGTDFTLTISSLQPEDFATYFCQQAYRSPWTFGQGTKLEIK
notes: humanized IgG4
B3: Hu19 (antibody, IgG4, V domains shown)
VH: EVQLVESGGGLVKPGGSLRLSCAASGFTFSSYHMSWVRQAPGKGLELVSAISRDGDSTYYPDTVKGRFTISRDDAENSLYLQMNSLRAEDTAVYYCSRHEDYFGFAMDSWGQGTLVTVSS
VL: B1 VL
notes: humanized IgG4
B4: Hu10 (antibody, IgG4, V domains shown)
VH: B1 VH with Q13K, A49S
VL: B1 VL with T30S, N53H, H54R, Y55F, Q89H
notes: humanized IgG4
B5: Hu13 (antibody, IgG4, V domains shown)
VH: B3 VH with D74N, E76K
VL: B1 VL
notes: humanized IgG4
B6: Hu58 (antibody, IgG4, V domains shown)
VH: B1 VH with V37I, D55G, I74N
VL: B1 VL with T30S, N53H, H54R, Y55F, Q89H
notes: humanized IgG4
B7: Hu31 (antibody, IgG4, V domains shown)
VH: B3 VH with K13Q, S49A
VL: B1 VL
notes: humanized IgG4
B8: Hu49 (antibody, IgG4, V domains shown)
VH: B1 VH with Q13K, A49S, D55G, I74N
VL: B1 VL
notes: humanized IgG4
B9: Hu55 (antibody, IgG4, V domains shown)
VH: B1 VH with V37I, D55G, I74N
VL: B1 VL
notes: humanized IgG4
B10: Hu7 (antibody, IgG4, V domains shown)
VH: B1 VH with Q13K, A49S
VL: B1 VL
notes: humanized IgG4; also called Hu-07
B11: Hu25 (antibody, IgG4, V domains shown)
VH: B3 VH with K13Q, S49A, D74N, E76K
VL: B1 VL
notes: humanized IgG4
B12: Hu2 (antibody, IgG4, V domains shown)
VH: B1 VH
VL: B2 VL
notes: humanized IgG4; also called Hu-02
B13: Hu4 (antibody, IgG4, V domains shown)
VH: B1 VH
VL: B1 VL with T30S, N53H, H54R, Y55F, Q89H
notes: humanized IgG4; also called Hu-04
B14: Hu32 (antibody, IgG4, V domains shown)
VH: B3 VH with K13Q, S49A
VL: B2 VL
notes: humanized IgG4

Molecular target: T1, human CD112R on Jurkat CD112R effector …
Assay: cell-based or functional assay

| Binder | EC50, CD112R/CD112 reporter | Relative activity (%), EC50 COM701/EC50 antibody |
| --- | --- | --- |
| B1 | 0.0688 µg/mL | 92% |
| B2 | 0.0268 µg/mL | 245% |
| B3 | 0.0404 µg/mL | 127% |
| B4 | 0.0377 µg/mL | 199% |
| B5 | 0.0252 µg/mL | 192% |
| B6 | 0.0216 µg/mL | 277% |
| B7 | 0.0507 µg/mL | 110% |
| B8 | 0.0307 µg/mL | 214% |
| B9 | 0.0223 µg/mL | 302% |
| B10 | 0.144 µg/mL | 48.6% |
| B11 | 0.0412 µg/mL | 157% |
| B12 | 0.0577 µg/mL | 110% |
| B13 | 0.0385 µg/mL | 186% |
| B14 | 0.0471 µg/mL | 119% |

Molecular target: T2, hCD112R mFC recombinant protein
Assay: ELISA, coated hCD112R-ECD-mFC
Description: (§1) A plate was coated with a hCD112R-ECD-mFC protein (1.5 μg/mL) at a fixed concentration, and the humanized anti-CD112R antibodies diluted in a gradient (initial concentration: 1 μg/mL, 2.5-fold gradient dilution, 12 concentration gradients in total) were added to bind to the antigen. HRP-conjugated goat anti-human antibody IgG (Fc specific) (Sigma, A0170) was subjected to a 5000-fold dilution and used as a detection antibody for detection. The color development was performed with 0.1 mg/mL TMB, and finally stopped with 2 M hydrochloric acid. The plate was read at 420 nm/620 nm. EC₅₀ was obtained by fitting with a four-parameter logistic regression (4PL) model. The […] were COM701 (anti-CD112R antibody, Compugen, obtained by expression and purification according to the sequences in US20180280506A1) and the anti-KLH hu-IgG4 antibody.

| Binder | EC50 |
| --- | --- |
| B1 | 0.00276 µg/mL |
| B2 | 0.00459 µg/mL |
| B3 | 0.00411 µg/mL |
| B4 | 0.00257 µg/mL |
| B5 | 0.00433 µg/mL |
| B6 | 0.00488 µg/mL |
| B7 | 0.00339 µg/mL |
| B8 | 0.00495 µg/mL |
| B9 | 0.00553 µg/mL |
| B10 | 0.00432 µg/mL |
| B11 | 0.00403 µg/mL |
| B12 | 0.00303 µg/mL |
| B13 | 0.00295 µg/mL |
| B14 | 0.00404 µg/mL |

Molecular target: T2, hCD112R mFC recombinant protein
Assay: FACS competition, hCD112R mFc on CHO CD112 cells
Description: (§2) Cells CHO CD112 overexpressing human CD112 were co-incubated with a hCD112R mFc protein solution (5 μg/mL) prepared in a staining buffer (PBS+1% FBS), and the humanized anti-CD112R antibodies or the control antibodies at different concentrations (initial concentration: 100 μg/mL, 3-fold dilution, 10 concentration gradients) at 4° C. for 30 min. Unbound antibodies were then washed with a staining buffer and the cells were incubated with 1% (v/v) goat anti-mouse IgG Fc fluorescent secondary antibodies (Jackson ImmunoResearch) prepared in a staining buffer at 4° C. for 30 min in the dark. Finally, the cells were collected by using a flow cytometer (BD Canto II), and the fluorescent antibodies bound to the cell surface were detected. Raw data were analyzed by using FlowJo to obtain MFI values, and a four-parameter curve fitting was performed by using GraphPad Prism software to obtain IC₅₀ values. The positive control and the negative control were COM701 (anti-CD112R antibody, Compugen, obtained by expression and purification according to the sequences in US20180280506A1) and the anti-KLH hu-IgG4 antibody, respectively.

| Binder | IC50 |
| --- | --- |
| B1 | 4.31 µg/mL |
| B2 | 2.67 µg/mL |
| B3 | 2.48 µg/mL |
| B4 | 4.17 µg/mL |
| B5 | 2.19 µg/mL |
| B6 | 3.25 µg/mL |
| B7 | 2.52 µg/mL |
| B8 | 2.47 µg/mL |
| B9 | 2.81 µg/mL |
| B10 | 5.06 µg/mL |
| B11 | 3.7 µg/mL |
| B12 | 4.28 µg/mL |
| B13 | 4.22 µg/mL |
| B14 | 2.82 µg/mL |

Molecular target: T2, hCD112R mFC recombinant protein
Assay: ELISA, coated hCD112R-ECD-mFC; EC50 COM701/EC50 antibody
Description: as §1

| Binder | Relative activity (%) |
| --- | --- |
| B1 | 154% |
| B2 | 190% |
| B3 | 139% |
| B4 | 153% |
| B5 | 132% |
| B6 | 172% |
| B7 | 179% |
| B8 | 176% |
| B9 | 166% |
| B10 | 91% |
| B11 | 165% |
| B12 | 141% |
| B13 | 144% |
| B14 | 150% |

Molecular target: T2, hCD112R mFC recombinant protein
Assay: FACS competition, hCD112R mFc on CHO CD112 cells; IC50 COM701/IC50 antibody
Description: as §2

| Binder | Relative activity (%) |
| --- | --- |
| B1 | 92.2% |
| B2 | 90% |
| B3 | 144% |
| B4 | 95.5% |
| B5 | 164% |
| B6 | 74% |
| B7 | 142% |
| B8 | 97.5% |
| B9 | 85.7% |
| B10 | 78.6% |
| B11 | 97% |
| B12 | 92.9% |
| B13 | 94.2% |
| B14 | 127% |
